In assay [1] the target is Rituximab G2F (galactosylated fucosylated glycoform). Nature of the assay: SPR, 256 to 8 nM.
For assay [2], the target named is Rituximab G2 (galactosylated afucosylated glycoform). Nature of the assay: SPR, 256 to 8 nM. Background: SPR reads the build-up and loss of mass on a sensor chip optically.
Assay [3] concerns the target soluble human FcγRIIb ectodomain (human) (UniProt P31994). Nature of the assay: SPR (Biacore T200), mAb on Protein G chip, soluble FcγR ectodomain as analyte.
The target of assay [4] is soluble human FcγRIIa ectodomain (human) (UniProt P12318). Described as above.
Assay [5] deals with soluble human FcγRIIIa ectodomain (human) (UniProt P08637). Described as above.

From patent US20250188193A1 come the findings set out here.

Chain of soluble human FcγRIIb ectodomain (human) (P31994 43-217): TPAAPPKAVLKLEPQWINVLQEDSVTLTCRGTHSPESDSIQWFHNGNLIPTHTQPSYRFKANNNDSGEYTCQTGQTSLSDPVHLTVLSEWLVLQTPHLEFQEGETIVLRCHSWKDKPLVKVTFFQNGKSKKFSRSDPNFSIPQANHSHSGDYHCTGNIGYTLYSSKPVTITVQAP
Chain of tetrameric FcγRIIIA (P08637 17-208 limits assumed): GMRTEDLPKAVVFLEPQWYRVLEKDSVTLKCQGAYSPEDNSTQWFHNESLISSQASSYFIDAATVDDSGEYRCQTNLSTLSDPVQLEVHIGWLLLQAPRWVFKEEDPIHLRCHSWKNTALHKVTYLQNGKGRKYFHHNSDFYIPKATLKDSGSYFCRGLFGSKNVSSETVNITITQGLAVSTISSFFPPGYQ

In assay [1], “tetrameric FcγRIIIA (from UniProt P08637 17-208) (receptor)” came in with a KD1 of 55.2 nM and a KD2 of 2.29 nM. In assay [2], this substance registered a KD1 of 29.9 nM and a KD2 of 2.3 nM.
As for “human IgG1 Fc variant: Afucosylated (antibody)”, the dissociation constant Kd (usually the free concentration of one partner at which half of the binding sites on the other are occupied at equilibrium, for simple one-to-one binding) in assay [3] came to 2220 nM; in assay [4] it was 747 nM.
“human IgG1 Fc variant: GAALIE (antibody)”: the results for the Fold (affinity relative to Wild-type) in assay [3] and in assay [4] were 0.8 fold and 2.7 fold, respectively. The Kd in assay [3] turned out to be 4150 nM; in assay [5], 218 nM; in assay [4], 387 nM.
In the case of “human IgG1 Fc variant printed 'GAALIE' in the second such row of Table 9 (r13) (antibody)”, the Fold (affinity relative to Wild-type) was found to be 1.1 fold in assay [3], 0.8 fold in assay [5] and 5.5 fold in assay [4]. Besides, the dissociation constant (Kd) in assay [3] was found to be 2890 nM; in assay [5] it was 903 nM; in assay [4], 186 nM.
Turning to human IgG1 Fc variant: ALIE (antibody), the Fold (affinity relative to Wild-type) amounted to 0.8 fold in assay [3] and 0.5 fold in assay [4]. In addition, the Kd in assay [3] was determined as 3920 nM; in assay [5], 169 nM; in assay [4], 2070 nM.
Regarding “human IgG1 Fc variant: Wild-type (antibody)”, the Kd in assay [3] amounted to 3110 nM; in assay [5], 740 nM; in assay [4], 1030 nM. The Fold (affinity relative to Wild-type) in assay [5] and in assay [4] was 1 fold each time.
